This note sets out measurements from patent US20080045697A1 (Genentech, published 2008).

The target of this assay is T1, complement C3b (UniProt P01024 23-667; P01024 751-1663).
T1 construct: range 1-645;range 729-1641; The residue numbers seem to count on C3 without its signal peptide
Put plainly: Fig. S13A-C and results not shown.

T1 sequence (P01024 23-667 limits assumed, chain 1 of 2): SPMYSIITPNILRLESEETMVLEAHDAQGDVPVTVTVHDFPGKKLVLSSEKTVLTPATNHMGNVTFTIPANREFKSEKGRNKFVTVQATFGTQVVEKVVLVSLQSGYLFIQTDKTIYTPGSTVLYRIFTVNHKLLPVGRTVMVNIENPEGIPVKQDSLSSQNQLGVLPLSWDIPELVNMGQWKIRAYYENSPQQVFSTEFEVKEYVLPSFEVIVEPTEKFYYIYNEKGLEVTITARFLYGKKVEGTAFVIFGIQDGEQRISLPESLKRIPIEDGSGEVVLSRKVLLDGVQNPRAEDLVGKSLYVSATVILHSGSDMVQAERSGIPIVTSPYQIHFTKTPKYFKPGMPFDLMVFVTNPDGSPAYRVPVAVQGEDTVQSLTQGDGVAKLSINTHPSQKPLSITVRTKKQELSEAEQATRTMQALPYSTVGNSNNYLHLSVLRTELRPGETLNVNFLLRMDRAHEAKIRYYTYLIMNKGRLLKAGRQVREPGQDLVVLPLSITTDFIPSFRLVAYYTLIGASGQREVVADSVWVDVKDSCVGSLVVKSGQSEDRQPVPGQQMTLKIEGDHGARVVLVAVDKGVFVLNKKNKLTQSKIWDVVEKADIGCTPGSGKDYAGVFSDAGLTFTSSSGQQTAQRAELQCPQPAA
T1 sequence (P01024 751-1663 limits assumed, chain 2 of 2): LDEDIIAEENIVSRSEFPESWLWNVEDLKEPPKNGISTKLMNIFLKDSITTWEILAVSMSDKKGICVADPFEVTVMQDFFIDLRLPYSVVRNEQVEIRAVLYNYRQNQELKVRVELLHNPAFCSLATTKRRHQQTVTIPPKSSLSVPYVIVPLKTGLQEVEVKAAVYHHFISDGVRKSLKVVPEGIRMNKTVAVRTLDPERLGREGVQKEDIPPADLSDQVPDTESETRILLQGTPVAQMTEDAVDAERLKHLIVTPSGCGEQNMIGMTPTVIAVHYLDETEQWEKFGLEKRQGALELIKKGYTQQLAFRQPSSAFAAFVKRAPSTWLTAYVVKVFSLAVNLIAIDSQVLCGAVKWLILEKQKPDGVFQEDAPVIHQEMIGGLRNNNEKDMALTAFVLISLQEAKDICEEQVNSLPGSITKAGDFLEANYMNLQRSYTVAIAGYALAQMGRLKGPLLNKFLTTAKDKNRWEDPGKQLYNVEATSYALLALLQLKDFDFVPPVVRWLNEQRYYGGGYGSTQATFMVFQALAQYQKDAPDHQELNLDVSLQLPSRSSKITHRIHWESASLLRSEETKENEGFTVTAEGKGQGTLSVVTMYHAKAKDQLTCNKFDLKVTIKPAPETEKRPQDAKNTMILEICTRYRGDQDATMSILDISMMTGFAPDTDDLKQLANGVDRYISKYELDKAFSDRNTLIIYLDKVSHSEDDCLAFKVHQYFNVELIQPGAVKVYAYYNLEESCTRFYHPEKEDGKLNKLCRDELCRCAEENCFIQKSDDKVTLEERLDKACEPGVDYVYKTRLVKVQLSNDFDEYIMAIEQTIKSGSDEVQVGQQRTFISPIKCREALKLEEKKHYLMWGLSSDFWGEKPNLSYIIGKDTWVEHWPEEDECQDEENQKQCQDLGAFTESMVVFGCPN

B1: complement factor H (other, UniProt P08603 19-1231, looked up)
chain: EDCNELPPRRNTEILTGSWSDQTYPEGTQAIYKCRPGYRSLGNVIMVCRKGEWVALNPLRKCQKRPCGHPGDTPFGTFTLTGGNVFEYGVKAVYTCNEGYQLLGEINYRECDTDGWTNDIPICEVVKCLPVTAPENGKIVSSAMEPDREYHFGQAVRFVCNSGYKIEGDEEMHCSDDGFWSKEKPKCVEISCKSPDVINGSPISQKIIYKENERFQYKCNMGYEYSERGDAVCTESGWRPLPSCEEKSCDNPYIPNGDYSPLRIKHRTGDEITYQCRNGFYPATRGNTAKCTSTGWIPAPRCTLKPCDYPDIKHGGLYHENMRRPYFPVAVGKYYSYYCDEHFETPSGSYWDHIHCTQDGWSPAVPCLRKCYFPYLENGYNQNYGRKFVQGKSIDVACHPGYALPKAQTTVTCMENGWSPTPRCIRVKTCSKSSIDIENGFISESQYTYALKEKAKYQCKLGYVTADGETSGSITCGKDGWSAQPTCIKSCDIPVFMNARTKNDFTWFKLNDTLDYECHDGYESNTGSTTGSIVCGYNGWSDLPICYERECELPKIDVHLVPDRKKDQYKVGEVLKFSCKPGFTIVGPNSVQCYHFGLSPDLPICKEQVQSCGPPPELLNGNVKEKTKEEYGHSEVVEYYCNPRFLMKGPNKIQCVDGEWTTLPVCIVEESTCGDIPELEHGWAQLSSPPYYYGDSVEFNCSESFTMIGHRSITCIHGVWTQLPQCVAIDKLKKCKSSNLIILEEHLKNKKEFDHNSNIRYRCRGKEGWIHTVCINGRWDPEVNCSMAQIQLCPPPPQIPNSHNMTTTLNYRDGEKVSVLCQENYLIQEGEEITCKDGRWQSIPLCVEKIPCSQPPQIEHGTINSSRSSQESYAHGTKLSYTCEGGFRISEENETTCYMGKWSSPPQCEGLPCKSPPEISHGVVAHMSDSYQYGEEVTYKCFEGFGIDGPAIAKCLGEKWSHPPSCIKTDCLSLPSFENAIPMGEKKDVYKAGEQVTYTCATYYKMDGASNVTCINSRWTGRPTCRDTSCVNPPTVQNAYIVSRQMSKYPSGERVRYQCRSPYEMFGDEEVMCLNGNWTEPPQCKDSTGKCGPPPPIDNGDITSFPLSVYAPASSVEYQCQNLYQLEGNKRITCRNGQWSEPPKCLHPCVISREIMENYNIALRWTAKQKLYSRTGESVEFVCKRGYRLSSRSHTLRTTCWDGKLEYPTCAKR
notes: also called fH
For B1, the binding result was “binds”.
